Source: the RNAGym collection of RNA variant scans (doi:10.7554/elife.80360)

B1: CPEB3 Ribozyme (parent)
chain: GGGGGCCACAGCAGAAGCGUUCACGUCGCGGCCCCUGUCAGAUUCUGGUGAAUCUGCGAAUUCUGCUGU

Variants of: B1
Assay: self-cleavage, relative activity (ratio to wild type); higher = more cleavage; co-transcriptional
Variant C22G C39G has a self-cleavage of 0.0932.
C22G C39A gave a self-cleavage of 0.0996.
With C22G C39U the self-cleavage was 0.236.
C22G A42G showed a self-cleavage of 0.132.
With C22G A42U the self-cleavage was 0.194.
In the case of C22G A42C, the self-cleavage is reported as 0.23.
For A23C C35G, the self-cleavage was 0.417.
Variant C22U A42C has a self-cleavage of 0.247.
C22U A42U showed a self-cleavage of 0.27.
Work on C22U C27A yielded a self-cleavage of 0.2.
In the case of C22U C27U, the self-cleavage is reported as 0.164.
Work on C22U C27G yielded a self-cleavage of 0.215.
For C22G G65U, the self-cleavage was 0.212.
Work on C22G G65C yielded a self-cleavage of 0.196.
With C22G G65A the self-cleavage was 0.173.
For C22G A51C, the self-cleavage was 0.151.
C22G A51G gave a self-cleavage of 0.131.
For C22G A51U, the self-cleavage was 0.163.
For C22U G56U, the self-cleavage was 0.169.
Work on C22U G56C yielded a self-cleavage of 0.21.
With C22U G56A the self-cleavage was 0.187.
With C22U G47A the self-cleavage was 0.279.
In the case of C22U G47U, the self-cleavage is reported as 0.37.
C22U G47C gave a self-cleavage of 0.389.
In the case of C22U U67A, the self-cleavage is reported as 0.369.
For C22G U46A, the self-cleavage was 0.205.
In the case of C22G U46C, the self-cleavage is reported as 0.192.
Variant C22A U46G has a self-cleavage of 0.148.
For C22A U46C, the self-cleavage was 0.186.
C22G G50U gave a self-cleavage of 0.145.
With C22G G50C the self-cleavage was 0.127.
C22U A52C showed a self-cleavage of 0.233.
With C22U A52G the self-cleavage was 0.379.
Work on C22G yielded a self-cleavage of 0.181.
C22U gave a self-cleavage of 0.337.
In the case of C22G U44A, the self-cleavage is reported as 0.158.
For C22G U44C, the self-cleavage was 0.22.
In the case of C22G U53G, the self-cleavage is reported as 0.129.
C22G U53C gave a self-cleavage of 0.184.
In the case of C22G C35U, the self-cleavage is reported as 0.208.
C22G C35G gave a self-cleavage of 0.231.
C22G C35A gave a self-cleavage of 0.169.
A23C A52U gave a self-cleavage of 0.917.
With A23C A52G the self-cleavage was 0.963.
Variant A23C A52C has a self-cleavage of 0.921.
In the case of A23G A51U, the self-cleavage is reported as 1.
C22A U53G showed a self-cleavage of 0.151.
In the case of C22A U53A, the self-cleavage is reported as 0.208.
For A23C C57G, the self-cleavage was 0.412.
A23C C57U showed a self-cleavage of 0.406.
A23C C57A gave a self-cleavage of 0.339.
A23C G37C gave a self-cleavage of 0.254.
A23C G37A gave a self-cleavage of 0.3.
For A23C A59C, the self-cleavage was 0.69.
Variant A23C A59G has a self-cleavage of 0.96.
In the case of C22G A52C, the self-cleavage is reported as 0.191.
Variant C22G A52U has a self-cleavage of 0.146.
With C22G A52G the self-cleavage was 0.124.
A23C U49A gave a self-cleavage of 0.951.
In the case of A23C U49C, the self-cleavage is reported as 0.927.
Variant A23C U62G has a self-cleavage of 0.853.
Variant A23C U62C has a self-cleavage of 0.818.
Work on C22G C24A yielded a self-cleavage of 0.129.
Work on A23C U64G yielded a self-cleavage of 0.878.
A23C U64C showed a self-cleavage of 0.912.
With A23C G68U the self-cleavage was 0.995.
Variant A23C G68C has a self-cleavage of 0.977.
For C22U G50U, the self-cleavage was 0.312.
Variant C22U G50A has a self-cleavage of 0.355.
Work on C22U G50C yielded a self-cleavage of 0.243.
Work on A23C U53C yielded a self-cleavage of 0.915.
In the case of A23C U53G, the self-cleavage is reported as 0.81.
C22G G31U showed a self-cleavage of 0.178.
For C22U C66G, the self-cleavage was 0.132.
C22U C66A gave a self-cleavage of 0.19.
Variant C22U A23G has a self-cleavage of 0.307.
With C22U A23U the self-cleavage was 0.384.
Work on A23C G50C yielded a self-cleavage of 0.981.
For A23C G50A, the self-cleavage was 0.946.
Work on A23C G50U yielded a self-cleavage of 0.953.
With C22G A23G the self-cleavage was 0.217.
With A23C G41U the self-cleavage was 0.815.
Work on C22U U49G yielded a self-cleavage of 0.247.
C22U U49C gave a self-cleavage of 0.294.
C22G C34G showed a self-cleavage of 0.177.
Work on C22G C34A yielded a self-cleavage of 0.194.
C22U G48C gave a self-cleavage of 0.313.
Variant C22U G48U has a self-cleavage of 0.401.
Variant C22G C45G has a self-cleavage of 0.229.
With C22G C45A the self-cleavage was 0.223.
C22G A60C showed a self-cleavage of 0.133.
For C22G A60U, the self-cleavage was 0.0906.
With C22G G56U the self-cleavage was 0.202.
A23C U26G gave a self-cleavage of 0.749.
Variant A23C U67A has a self-cleavage of 0.988.
In the case of A23C U67C, the self-cleavage is reported as 0.97.
A23C C27U showed a self-cleavage of 0.358.
For A23C C27A, the self-cleavage was 0.463.
With A23C G48C the self-cleavage was 0.924.
For A23G A52C, the self-cleavage was 0.935.
A23G A52G gave a self-cleavage of 1.02.
For A23G A52U, the self-cleavage was 0.933.
For C22U G65U, the self-cleavage was 0.195.
With C22U G65A the self-cleavage was 0.216.
C22U G65C gave a self-cleavage of 0.248.
For C22G U49C, the self-cleavage was 0.123.
Work on C22G U49G yielded a self-cleavage of 0.153.
Variant A23G C24G has a self-cleavage of 0.36.
Work on A23G C24U yielded a self-cleavage of 0.833.
A23G C24A gave a self-cleavage of 0.711.
Variant C22U G37C has a self-cleavage of 0.216.
Work on C22U G37A yielded a self-cleavage of 0.957.
In the case of C22U C39G, the self-cleavage is reported as 0.207.
With C22U C39A the self-cleavage was 0.148.
For C22G U43A, the self-cleavage was 0.114.
C22G U43C showed a self-cleavage of 0.174.
In the case of C22G U43G, the self-cleavage is reported as 0.133.
Variant C22U U64A has a self-cleavage of 0.21.
A23C C34G gave a self-cleavage of 0.36.
In the case of A23C C34U, the self-cleavage is reported as 0.936.
Variant A23C C34A has a self-cleavage of 0.696.
For A23C U38G, the self-cleavage was 0.216.
Variant A23C A51C has a self-cleavage of 0.942.
In the case of A23C A51U, the self-cleavage is reported as 0.959.
Work on A23C A51G yielded a self-cleavage of 0.899.
In the case of C22U U38A, the self-cleavage is reported as 0.272.
With C22U U38G the self-cleavage was 0.141.
Work on C22U U38C yielded a self-cleavage of 0.304.
In the case of A23C G56C, the self-cleavage is reported as 0.762.
Variant A23C G56A has a self-cleavage of 0.852.
Variant C22G C29U has a self-cleavage of 0.07.
C22G C29G gave a self-cleavage of 0.225.
Variant C22U A51C has a self-cleavage of 0.291.
C22U A51G gave a self-cleavage of 0.314.
In the case of A23C C54U, the self-cleavage is reported as 0.967.
For A23C C54G, the self-cleavage was 0.921.
Work on C22U U36C yielded a self-cleavage of 0.157.
For C22U U36G, the self-cleavage was 0.175.
For C22U U36A, the self-cleavage was 0.196.
Work on C22U G25U yielded a self-cleavage of 0.153.
Variant C22U G25A has a self-cleavage of 0.164.
Work on C22U G25C yielded a self-cleavage of 0.153.
A23G A59U gave a self-cleavage of 0.817.
In the case of A23G A59C, the self-cleavage is reported as 0.699.
With C22U U53C the self-cleavage was 0.227.
C22U U53A gave a self-cleavage of 0.193.
For C22U U53G, the self-cleavage was 0.111.
In the case of C22U G68C, the self-cleavage is reported as 0.517.
Work on C22U G68A yielded a self-cleavage of 0.48.
C22U C32A gave a self-cleavage of 0.17.
Work on C22U C32U yielded a self-cleavage of 0.33.
For C22A U61A, the self-cleavage was 0.219.
Work on C22A U61G yielded a self-cleavage of 0.25.
In the case of C22A U61C, the self-cleavage is reported as 0.164.
Work on C22G G48A yielded a self-cleavage of 0.226.
With C22G G48U the self-cleavage was 0.161.
Work on A23C A40G yielded a self-cleavage of 0.92.
In the case of C22U U44C, the self-cleavage is reported as 0.31.
With C22U U44G the self-cleavage was 0.241.
C22U U44A gave a self-cleavage of 0.318.
Work on A23C C45U yielded a self-cleavage of 0.961.
Work on A23C C45G yielded a self-cleavage of 0.931.
For A23C C45A, the self-cleavage was 0.986.
A23C C39G showed a self-cleavage of 0.905.
With A23C C39A the self-cleavage was 0.798.
Variant C22G C66A has a self-cleavage of 0.135.
In the case of C22G C66G, the self-cleavage is reported as 0.182.
